The record followed here is patent US5831013, “Capsid polypeptides and use to inhibit viral packaging” (The Research Foundation of State University of New York, dated 1998).

Test [1] has as its target ScVLa capsid protein Cap, full size (697 amino acids) (ScVLa virus of Saccharomyces cerevisiae).
Test [2] concerns the target ScVL1 capsid protein Cap, full size (680 amino acids) (ScVL1 virus of Saccharomyces cerevisiae).
Test [3] deals with T1, ScVL1 capsid protein Cap, full size (680 amino acids) (ScVL1 virus of Saccharomyces cerevisiae).
T1 chain: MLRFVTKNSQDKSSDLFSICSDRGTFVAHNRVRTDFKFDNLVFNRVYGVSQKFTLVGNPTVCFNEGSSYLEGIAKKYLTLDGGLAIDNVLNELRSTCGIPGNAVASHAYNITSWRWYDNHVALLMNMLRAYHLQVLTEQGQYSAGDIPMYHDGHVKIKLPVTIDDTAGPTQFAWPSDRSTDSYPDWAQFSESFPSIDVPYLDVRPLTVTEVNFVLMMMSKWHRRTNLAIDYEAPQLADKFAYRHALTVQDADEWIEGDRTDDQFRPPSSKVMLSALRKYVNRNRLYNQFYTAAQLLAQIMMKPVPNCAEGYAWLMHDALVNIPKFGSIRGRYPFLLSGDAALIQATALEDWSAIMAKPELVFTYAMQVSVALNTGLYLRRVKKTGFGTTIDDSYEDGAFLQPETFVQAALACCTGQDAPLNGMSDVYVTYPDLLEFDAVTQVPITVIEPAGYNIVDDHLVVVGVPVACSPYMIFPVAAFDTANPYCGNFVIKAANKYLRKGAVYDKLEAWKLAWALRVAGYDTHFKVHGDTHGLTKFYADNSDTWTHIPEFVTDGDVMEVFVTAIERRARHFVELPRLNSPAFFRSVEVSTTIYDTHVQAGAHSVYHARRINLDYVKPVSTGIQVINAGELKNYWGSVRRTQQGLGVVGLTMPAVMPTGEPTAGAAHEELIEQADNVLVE
Nature of the test: cell-based or functional assay.

In test [4] the target is T2, ScVLa capsid protein Cap, full size (697 amino acids) (ScVLa virus of Saccharomyces cerevisiae).
T2 chain: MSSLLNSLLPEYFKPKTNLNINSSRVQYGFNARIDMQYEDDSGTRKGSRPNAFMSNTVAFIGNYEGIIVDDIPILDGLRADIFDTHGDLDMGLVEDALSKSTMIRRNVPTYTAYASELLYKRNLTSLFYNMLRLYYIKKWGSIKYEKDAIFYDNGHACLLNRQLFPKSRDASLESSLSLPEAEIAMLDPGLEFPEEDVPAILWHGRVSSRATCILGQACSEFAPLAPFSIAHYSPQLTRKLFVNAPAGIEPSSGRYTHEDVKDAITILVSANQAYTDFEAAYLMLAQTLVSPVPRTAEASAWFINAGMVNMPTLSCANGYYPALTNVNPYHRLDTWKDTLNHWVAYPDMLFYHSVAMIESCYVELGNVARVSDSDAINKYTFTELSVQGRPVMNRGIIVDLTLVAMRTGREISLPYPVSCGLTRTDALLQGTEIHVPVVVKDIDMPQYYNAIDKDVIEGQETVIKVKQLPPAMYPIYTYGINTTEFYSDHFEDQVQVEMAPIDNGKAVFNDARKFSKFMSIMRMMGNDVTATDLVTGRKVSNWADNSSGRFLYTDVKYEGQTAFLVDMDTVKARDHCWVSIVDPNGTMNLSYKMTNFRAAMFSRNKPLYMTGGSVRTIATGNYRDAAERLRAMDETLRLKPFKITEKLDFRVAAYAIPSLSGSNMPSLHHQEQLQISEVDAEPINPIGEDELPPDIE
Nature of the test: cell-based or functional assay.

Read-outs that look alike come from different tables or passages of the source.

In the case of “La Cap N-terminal fragment of pGLa1d3 (aa 1-443)”, the Curing (%) of ScVLa in test [1] was found to be 100%.
For the molecule “L1 Cap N-terminal fragment of pGL1d2 (aa 1-603)”, the Curing (%) of ScVL1 in test [2] was 100%.

B1: L1 Cap N-terminal fragment of nonsense mutant pGL1m13 (Q10O, aa 1-9) (peptide)
chain: MLRFVTKNS
In the case of B1, in test [3], the “Curing (%) of ScVL1” value is less than 5%.

B2: La Cap N-terminal fragment of nonsense mutant pGLa1m5 (S419O, aa 1-418) (other)
chain: MSSLLNSLLPEYFKPKTNLNINSSRVQYGFNARIDMQYEDDSGTRKGSRPNAFMSNTVAFIGNYEGIIVDDIPILDGLRADIFDTHGDLDMGLVEDALSKSTMIRRNVPTYTAYASELLYKRNLTSLFYNMLRLYYIKKWGSIKYEKDAIFYDNGHACLLNRQLFPKSRDASLESSLSLPEAEIAMLDPGLEFPEEDVPAILWHGRVSSRATCILGQACSEFAPLAPFSIAHYSPQLTRKLFVNAPAGIEPSSGRYTHEDVKDAITILVSANQAYTDFEAAYLMLAQTLVSPVPRTAEASAWFINAGMVNMPTLSCANGYYPALTNVNPYHRLDTWKDTLNHWVAYPDMLFYHSVAMIESCYVELGNVARVSDSDAINKYTFTELSVQGRPVMNRGIIVDLTLVAMRTGREISLPYPV
B2: in test [4], the “Curing (%) of ScVLa” value is less than 10%.

B3: L1 Cap N-terminal fragment of nonsense mutant pGL1m12 (E435O, aa 1-434) (other)
chain: MLRFVTKNSQDKSSDLFSICSDRGTFVAHNRVRTDFKFDNLVFNRVYGVSQKFTLVGNPTVCFNEGSSYLEGIAKKYLTLDGGLAIDNVLNELRSTCGIPGNAVASHAYNITSWRWYDNHVALLMNMLRAYHLQVLTEQGQYSAGDIPMYHDGHVKIKLPVTIDDTAGPTQFAWPSDRSTDSYPDWAQFSESFPSIDVPYLDVRPLTVTEVNFVLMMMSKWHRRTNLAIDYEAPQLADKFAYRHALTVQDADEWIEGDRTDDQFRPPSSKVMLSALRKYVNRNRLYNQFYTAAQLLAQIMMKPVPNCAEGYAWLMHDALVNIPKFGSIRGRYPFLLSGDAALIQATALEDWSAIMAKPELVFTYAMQVSVALNTGLYLRRVKKTGFGTTIDDSYEDGAFLQPETFVQAALACCTGQDAPLNGMSDVYVTYPDLL
Consider B3, for which the “Curing (%) of ScVL1” value in test [3] was less than 5%.

B4: La Cap N-terminal fragment of nonsense mutant pGLa1m6 (E11O, aa 1-10) (peptide)
chain: MSSLLNSLLP
For B4, the “Curing (%) of ScVLa” value in test [4] was less than 10%.

B5: L1 Cap N-terminal fragment of pGL1d4 (aa 1-435) (other)
chain: MLRFVTKNSQDKSSDLFSICSDRGTFVAHNRVRTDFKFDNLVFNRVYGVSQKFTLVGNPTVCFNEGSSYLEGIAKKYLTLDGGLAIDNVLNELRSTCGIPGNAVASHAYNITSWRWYDNHVALLMNMLRAYHLQVLTEQGQYSAGDIPMYHDGHVKIKLPVTIDDTAGPTQFAWPSDRSTDSYPDWAQFSESFPSIDVPYLDVRPLTVTEVNFVLMMMSKWHRRTNLAIDYEAPQLADKFAYRHALTVQDADEWIEGDRTDDQFRPPSSKVMLSALRKYVNRNRLYNQFYTAAQLLAQIMMKPVPNCAEGYAWLMHDALVNIPKFGSIRGRYPFLLSGDAALIQATALEDWSAIMAKPELVFTYAMQVSVALNTGLYLRRVKKTGFGTTIDDSYEDGAFLQPETFVQAALACCTGQDAPLNGMSDVYVTYPDLLE
B5: the “Curing (%) of ScVL1” value in test [3] is less than 5%.

B6: L1 Cap N-terminal fragment of nonsense mutant pGL1m14 (Y485O, aa 1-484) (other)
chain: MLRFVTKNSQDKSSDLFSICSDRGTFVAHNRVRTDFKFDNLVFNRVYGVSQKFTLVGNPTVCFNEGSSYLEGIAKKYLTLDGGLAIDNVLNELRSTCGIPGNAVASHAYNITSWRWYDNHVALLMNMLRAYHLQVLTEQGQYSAGDIPMYHDGHVKIKLPVTIDDTAGPTQFAWPSDRSTDSYPDWAQFSESFPSIDVPYLDVRPLTVTEVNFVLMMMSKWHRRTNLAIDYEAPQLADKFAYRHALTVQDADEWIEGDRTDDQFRPPSSKVMLSALRKYVNRNRLYNQFYTAAQLLAQIMMKPVPNCAEGYAWLMHDALVNIPKFGSIRGRYPFLLSGDAALIQATALEDWSAIMAKPELVFTYAMQVSVALNTGLYLRRVKKTGFGTTIDDSYEDGAFLQPETFVQAALACCTGQDAPLNGMSDVYVTYPDLLEFDAVTQVPITVIEPAGYNIVDDHLVVVGVPVACSPYMIFPVAAFDTANP
Take B6: the “Curing (%) of ScVL1” value in test [3] was less than 5%.

B7: L1 Cap N-terminal fragment of nonsense mutant pGL1m15 (G501O, aa 1-500) (other)
chain: MLRFVTKNSQDKSSDLFSICSDRGTFVAHNRVRTDFKFDNLVFNRVYGVSQKFTLVGNPTVCFNEGSSYLEGIAKKYLTLDGGLAIDNVLNELRSTCGIPGNAVASHAYNITSWRWYDNHVALLMNMLRAYHLQVLTEQGQYSAGDIPMYHDGHVKIKLPVTIDDTAGPTQFAWPSDRSTDSYPDWAQFSESFPSIDVPYLDVRPLTVTEVNFVLMMMSKWHRRTNLAIDYEAPQLADKFAYRHALTVQDADEWIEGDRTDDQFRPPSSKVMLSALRKYVNRNRLYNQFYTAAQLLAQIMMKPVPNCAEGYAWLMHDALVNIPKFGSIRGRYPFLLSGDAALIQATALEDWSAIMAKPELVFTYAMQVSVALNTGLYLRRVKKTGFGTTIDDSYEDGAFLQPETFVQAALACCTGQDAPLNGMSDVYVTYPDLLEFDAVTQVPITVIEPAGYNIVDDHLVVVGVPVACSPYMIFPVAAFDTANPYCGNFVIKAANKYLRK
On to B7, for which the “Curing (%) of ScVL1” value in test [3] is less than 5%.

B8: L1 Cap N-terminal fragment of pGL1d5 (aa 1-433) (other)
chain: MLRFVTKNSQDKSSDLFSICSDRGTFVAHNRVRTDFKFDNLVFNRVYGVSQKFTLVGNPTVCFNEGSSYLEGIAKKYLTLDGGLAIDNVLNELRSTCGIPGNAVASHAYNITSWRWYDNHVALLMNMLRAYHLQVLTEQGQYSAGDIPMYHDGHVKIKLPVTIDDTAGPTQFAWPSDRSTDSYPDWAQFSESFPSIDVPYLDVRPLTVTEVNFVLMMMSKWHRRTNLAIDYEAPQLADKFAYRHALTVQDADEWIEGDRTDDQFRPPSSKVMLSALRKYVNRNRLYNQFYTAAQLLAQIMMKPVPNCAEGYAWLMHDALVNIPKFGSIRGRYPFLLSGDAALIQATALEDWSAIMAKPELVFTYAMQVSVALNTGLYLRRVKKTGFGTTIDDSYEDGAFLQPETFVQAALACCTGQDAPLNGMSDVYVTYPDL
Regarding B8, the “Curing (%) of ScVL1” value in test [3] was less than 5%.
